Results from patent publication US7108990B2, “Chemokine receptor” (ChemoCentryx, Inc., priority 1999, dated 2006).
Entries after “also recorded” stand apart in the source; their conditions may differ. Where two headings read alike, the source gives them in different places.

T1: CCX CKR (Homo sapiens, UniProt Q9NPB9)
T1 construct: Full length CCX CKR expression constructs were made in pIRESpuro expression vector; expressed in transfected cells
T1 sequence (Q9NPB9 1-350): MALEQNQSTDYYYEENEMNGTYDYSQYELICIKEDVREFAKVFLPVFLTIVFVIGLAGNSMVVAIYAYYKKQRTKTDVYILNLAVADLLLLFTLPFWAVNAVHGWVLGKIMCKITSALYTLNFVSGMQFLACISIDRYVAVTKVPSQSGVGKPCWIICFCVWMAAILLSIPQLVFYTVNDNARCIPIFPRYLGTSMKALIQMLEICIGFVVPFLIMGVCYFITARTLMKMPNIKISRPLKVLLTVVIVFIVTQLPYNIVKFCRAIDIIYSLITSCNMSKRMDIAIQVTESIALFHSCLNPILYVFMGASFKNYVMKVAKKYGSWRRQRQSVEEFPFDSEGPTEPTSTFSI

B1: mMIP-1gamma: murine chemokine MIP-1γ (protein)
chain: QITHATETKEVQSSLKAQQGLEIEMFHMGFQDSSDCCLSYNSRIQCSRFIGYFPTSGGCTRPGIIFISKRGFQVCANPSDRRVQRCIERLEQNSQPRTYKQ
B2: murine CTACK: murine chemokine CTACK, also referred to as CCL27, ALP, ILC, and ESkine (protein)
chain: LPLPSSTSCCTQLYRQPLPSRLLRRIVHMELQEADGDCHLQAVVLHLARRSVCVHPQNRSLARWLERQGKRLQGTVPSLNLVLQKKMYSHPQQQN
B3: TECK: thymus expressed chemokine, recombinant (protein)
chain: QGVFEDCCLAYHYPIGWAVLRRAWTYRIQEVSGSCNLPAAIFYLPKRHRKVCGNPKSREVQRAMKLLDARNKVFAKLHHNTQTFQAGPHAVKKLSSGNSKLSSSKFSNPISSSKRNVSLLISANSGL
B4: vMIP-II: virally-encoded chemokine from the human Kaposi's sarcoma herpesvirus HHV8 (protein)
chain: LGASWHRPDKCCLGYQKRPLPQVLLSSWYPTSQLCSKPGVIFLTKRGRQVCADKSKDWVKKLMQQLPVTAR

What was measured:
[1] = target: T1, CCX CKR; test: Small molecule screen: inhibition of 125I-ELC binding to HEK293 cells stably expressing CCX CKR; settings: for effect on binding between ELC and CCX CKR: 125I-ELC ~25–100 pM, compounds 1–5 μg/mL, HEK293-CCX CKR cells, 3 hours at 4° C.; for type of modulator of CCX CKR function: Table 1, exemplary small molecule modulators of CCX CKR binding to ELC
Procedure: Source plates of chemical libraries were obtained from commercial vendors and contained individual compounds at 5 mg/mL in DMSO, or in some instances, at 1 mg/mL. From these, multiple compound plates containing 10 compounds in each well were made, and these were diluted in 20% DMSO to a concentration of 50 μg/mL (10 μg/mL for those beginning at 1 mg/mL). An aliquot of 20 μL of each mixture was put into the test plates, which were stored frozen until use.
HEK293 cells stably expressing the M1 flag epitope-tagged CCX CKR (described in Example 3, supra) were cultured in DMEM-10% FBS, and harvested when the concentration was between 0.5–1.0×10^6 cells/mL. The cells were centrifuged and resuspended in assay buffer (20 mM HEPES, 80 mM NaCl, 1 mM CaCl2, 5 mM MgCl2, and with 0.2% bovine serum albumin, pH 7.4) to a concentration of 5.6×10^6 cells/mL.
Using a Multi-Probe automated system, 0.09 mL of cells was added to each well of the assay test plates containing the compounds, followed by 0.09 mL of ^125I-MIPβ3/ELC (from Amersham Pharmacia Biotech) diluted in assay buffer (final concentration ˜25–100 pM, with ˜50,000 cpm per well). The final concentration of the compounds was 1–5 μg/mL each. The plates were sealed and incubated for approximately 3 hours at 4° C. on a shaker platform. The assay plates were harvested using Packard GP/B filter plates, pre-soaked in PEI solution, on the vacuum harvest apparatus. Scintillation fluid (50 μL) was added to each of the wells, the plates were sealed and counted in a Top Count scintillation counter. Control wells contained either diluent only (for total counts) or excess ELC (1 μg/mL, for non-specific binding) and were used to calculate the percent of total inhibition of ELC binding for each set of compounds.

[2] = target: T1, CCX CKR; test: Radioligand binding competition (DisplaceMax) to CCX CKR stable transfectants with Scatchard transformation
From the text: In one embodiment, binding is detected as described by Dairaghi et al., 1997, J. Biol. Chem. 272:28206–209 (incorporated by reference in its entirety for all purposes) substituting CCX CKR transfectants for the CCR3 transfectants). In one embodiment, binding is detected using the filter based technique described by Dairaghi et al., 1999, J. Biol. Chem. 274:2156 (incorporated by reference in its entirety for all purposes), e.g., as shown in FIG. 4. Briefly, this technology employs expanded, efficiency-maximized radioligand binding utilizing filtration protocols. In these assays, 1×10^5 CCXCKR-293 HEK cells are incubated with ^125I-labeled ELC (MIP3beta) (final concentration of ˜0.05 nM) in the presence of unlabeled chemokine for 3 h at 4° C. in 25 mM HEPES, 140 mM NaCl, 1 mM CaCl2, 5 mM MgCl2, and 0.2% bovine serum albumin, adjusted to pH 7.1. Reactions were aspirated onto PEI-treated GF/B glass filters using a cell harvester (Packard). Filters are washed twice (25 mM HEPES, 500 mM NaCl, 1 mM CaCl2 5 mM MgCl2, adjusted to pH 7.1) and scintillant (e.g., MicroScint 20; 50 μl) is added to dried filters and counted (e.g., using a Packard Topcount scintillation counter). The competition dose-response curves is analyzed by standard methods to determine IC50 values (e.g., using GraphPad Prism software (San Diego, Calif.)). Additionally, a Scatchard transformation can be used to estimate the receptor sites per cell (e.g., using WaveMetrics Igor software (Lake Oswego, Oreg.)).
(§1) Binding analysis was carried out using efficiency-maximized radioligand binding utilizing filtration protocols designated “Displace Max” (Dairaghi et al., 1999, J. Biol. Chem. 274:21569). In these assays, DisplaceMax employed the simultaneous interrogation of CCX CKR transfectants by >80 distinct purified chemokines in the ability to displace radiolabeled ELC or TECK, using the protocol described (Dairaghi et al., 1999, J. Biol. Chem. 274:21569).
The binding interactions identified in the primary screen were examined quantitatively by extensive radioligand binding competition to CCX CKR stable transfectants and Scatchard transformation of the displacement data (FIG. 4B). […] In each case, the murine versions of these chemokines also bound, and with even greater affinity; the apparent Kd's are listed in FIG. 4B. […] In similar experiments, murine CTACK bound the receptor with a Kd of ˜9 nM (not shown). CTACK is also referred to as CCL27, ALP, ILC, and ESkine.

[3] = target: T1, CCX CKR; test: Ligand binding fingerprint: cold chemokines competing against 125I-ELC on CCX CKR stable transfectants; settings: cold competitor at 200 nM; human and murine chemokines
From the text: In order to rapidly and thoroughly define a given chemokine receptor's ligand binding fingerprint, we have established an approach to comprehensively profile chemokine receptors using a large array of purified chemokines and chemokine variants. We used this approach to confirm independently the interaction of ELC and other chemokines with CCX CKR. Employing radioligand binding of ^125-labeled-ELC or ^125-TECK to CCX CKR stable transfectants, chemokine specificity for the new receptor was determined.
as §1

[4] = target: T1, CCX CKR; test: Adhesion of HEK293-CCX CKR cells to immobilized stalkokines and competition by soluble chemokines; type: cell-based; settings: soluble recombinant chemokine 5–10 ug/ml
From the text: “Stalkokine” technology was used to identify the chemokines bound by the CCX CKR. Briefly, immobilized native chemokines alone are incapable of capturing cells bearing cognate receptors (Imai et al., 1997, Cell 91:521). We have developed non-native chemokine structures, stalkokines, comprising chemokine moieties engineered as N-terminal attachments to extended modified mucins (Bazan et al., 1997, Nature 385:640). In one embodiment, stalkokines, harvested in the supernatants of HEK293 cells after transient transfection, are anchored to solid substrates via antibodies against carrier domains (e.g. poly-His epitopes) engineered to the carboxyl terminus, leaving the chemokine domain free to interact with candidate orphan receptors.
To determine ligand binding to CCX CKR, HEK293-CCX CKR cells were used to interrogate chemokine ‘stalkokines’ (SK), i.e., molecules in which discrete chemokine domains were engineered to be tethered to the end of an extended stalk structure. Stalkokines were interrogated using 8-well chamber slides coated first with anti-His anchoring antibody (10 ug/ml in PBS overnight at RT), which were washed and ‘blocked’ (2% FBS/0.5% BSA in PBS); treated with 250 ul of HEK293 cell stalkokine supernatants (1 hr at 37 C), and incubated with 500,000 HEK293-CCX CKR transfectants (1.5 hrs at RT). Inhibition of adhesion by competition with soluble chemokines was done by incubating cells with 5–10 ug/ml of recombinant chemokines. In all cases, nonadherent cells were removed by washing in PBS; remaining adherent cells were fixed with 1% glutaraldehyde, photoimaged and counted. As a primary screen this adhesion would reveal putative receptor-ligand interactions.

[5] = target: T1, CCX CKR; test: Ligand induced internalization of Flag-CCX CKR in 293 cells (FACS); type: cell-based; settings: 100 nM chemokine, 37° C., 15 or 45 minutes, 293 F-CCR10 cells
Procedure: 293 cells transfected with the Flag-CCX CKR fusion plasmid (i.e., “293 F-CCR10 cells;” see Example 3) were incubated at 37° C. with varying concentrations of chemokines (ELC, SLC, TECK, murine CTACK and MCP-4) for 15 or 45 minutes. Following incubation, the cells were washed and fixed with 3% paraformaldehyde for 15 minutes on ice. The cells were stained with anti-Flag M1 antibody, followed by a PE-conjugated anti-mouse secondary antibody. FACS analysis were then carried out to determine surface expression of the receptor.
Results: A reduction in antibody binding in the presence of ligand is an indication of ligand-induced internalization of the receptor.

[6] = target: T1, CCX CKR; test: Homologous competition binding assay with radiolabeled chemokine on HEK293-CCX CKR cells; settings: HEK293-CCX CKR cells versus wildtype HEK293 cells
From the text: Furthermore ELC-SK mediated adhesion was abolished in the presence of soluble native ELC as a competitor (FIG. 3A, top row). […] Moreover, radiolabeled ELC was used in a traditional homologous competition assay in the presence of increasing concentrations of unlabeled ELC. […] Taken together, the stalkokine-based adhesion and radiolabeled ligand binding/homologous competition assays indicate that CCX CKR is a new chemokine receptor that bound a novel compliment of chemokines.

Molecule	effect on binding between ELC and CCX CKR [1]	type of modulator of CCX CKR function [1]	affinity of binding to CCX CKR, in words [2]	competition with 125I-labeled ELC binding to CCX CKR (fingerprint) [3]	internalization of CCX CKR [5]	further results
CCC(c1nc2ccccc2c(=O)n1C)N(Cc1ccco1)C(=O)Nc1cccc(C(F)(F)F)c1 (stereo not shown) [Compound III]	enhance binding	Compound III(agonist)	–	–	–	–
CC1CCCCN1CCCN(Cc1ccc(OCc2ccccc2)cc1)C(=O)NCC1CCC2CCCC(C2)C1 (stereo not shown) [Compound II]	inhibit binding	Compound II(antagonist)	–	–	–	–
CC1CCCCN1CCCN(Cc1ccc(OCc2ccccc2)cc1)C(=O)Nc1ccc(Cl)c(Cl)c1 (stereo not shown) [Compound I]	inhibit binding	Compound I(antagonist)	–	–	–	–
BLC: the CXC chemokine BLC	–	–	lower affinity; also recorded: of lesser affinity, also bound well	potential lower affinity	–	–
MCP-3: chemokine, representative of many non-competing chemokines	–	–	–	–	–	effect of soluble chemokine on ELC-SK mediated adhesion of HEK293-CCX CKR cells [4]: no diminution in adhesion
MCP-4: chemokine, did not cause receptor internalization	–	–	–	–	did not cause internalization	–
B1	–	–	lower affinity	moderately	–	–
B2	–	–	high affinity	–	Internalization of the receptor was observed	–
B3	–	–	high affinity	bound well	Internalization of the receptor was observed	effect of soluble chemokine on ELC-SK mediated adhesion of HEK293-CCX CKR cells [4]: significant reduction; also recorded: ablation of adhesion; binding in homologous competition of radiolabeled with unlabeled chemokine [6]: Nearly identical results
B4	–	–	moderate to low affinity	potential lower affinity	–	affinity of binding to CCX CKR, in words ([2]; listed as vMIPII): lower affinity
